In patent US20240125793A1:

Legend:
5c1-I-E^k (murine) [1] = target: 5c1-I-E^k (murine) (UniProt P04224); experiment: SPR (Biacore T100), refolded TCR over peptide-exchanged biotinylated I-Ek on SA chip, equilibrium
5c3-I-E^k (murine) = 5c3-I-E^k (murine) (UniProt P04224); experiment: as above
[2] = target: MCC-I-E^k (soluble I-Ek exchanged with the MCC peptide) (murine) (UniProt P04224); experiment: as above
5c1-I-E^k (murine) [3] = target: 5c1-I-E^k (murine) (UniProt P04224); experiment: cell-based or functional assay
[4] = target: MCC-I-E^k (soluble I-Ek exchanged with the MCC peptide) (murine) (UniProt P04224); experiment: cell-based or functional assay

Kd (5c1-I-E^k (murine) [1]): 115 µM | Kd (5c3-I-E^k (murine)): 62 µM | Kd [2]: 41 µM | signaling potency (EC50) (5c1-I-E^k (murine) [3]): 1.5 µM | signaling potency (EC50) [4]: 0.0084 µM
Substance: 5cc7 TCR
